± gives the uncertainty stated by the source.
Assay: self-splicing fitness, log relative to wild type (ln ratio); higher = more splicing; Tetrahymena group I intron in knt gene, E. coli kanamycin selection, DiMSum; sequences stand for … in CUCUCU…GGAGGGAAAAGUUAUCAGGCAUGCACCUGGUAGCUAGUCUUUAAACCAAUAGAUUGCAUCGGUUUAAAAGGCAAGACCGUCAAAUUGCGGGAAAGGGGUCAACAGCCGUUCAGUACCAAGUCUCAGGGGAAACUUUGAGAUGGCCUUGCAAAGGGUAUGGUAAUAAGCUGACGGACAUGGUCCUAACCACGCAGCCAAGUCCUAAGUCAACAGAUCUUCUGUUGAUAUGGAUGCAGUUCACAGACUAAAUGUCGGUCGGGGAAGAUGUAUUCUUCUCAUAAGAUAUAGUCGGACCUCUCCUUAAUGGGAGCUAGCGGAUGAAGUGAUGCAACACUGGAGCCGCUGGGAACUAAUUUGUAUGCGAAAGUAUAUUGAUUAGUUUUGGAGUACUCGUGGUCG
How it was run: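 A randomised library covering all eight P1ex-region intron nucleotides was built with the intron in the knt kanamycin-resistance gene on pET-22b(+) and held in E. coli BL21(DE3). Cells were grown overnight at 37°C or 30°C on LB agar, with or without 25 μg/mL kanamycin, plus 100 μg/mL carbenicillin, 50 μM IPTG and 0.2% rhamnose, and pooled colonies were amplicon-sequenced on an Illumina HiSeq 2500. DiMSum fitness is the error-weighted combination of wild-type-normalised replicate fold changes, kanamycin versus none.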

Row | Sequence | self-splicing fitness (ln) (30 °C) | self-splicing fitness (ln) (37 °C)
1 | GGCCAGCAAUAUUACGGAGG | -2.39 ± 0.11 | -1.14 ± 0.14
2 | GGCCAGCAAUAUUACGGAUC | -0.753 ± 0.092 | -0.347 ± 0.11
3 | GGCCAGCAAUAUUACGGUCC | -3.11 ± 0.21 | -2.45 ± 0.37
4 | GGCCAGCAAUAUUACGUAGA | -1.59 ± 0.12 | -1.04 ± 0.15
5 | GGCCAGCAAUAUUACGUCCG | -3.34 ± 0.21 | -0.963 ± 0.14
6 | GGCCAGCAAUAUUACGUCUA | -2.43 ± 0.084 | -1.29 ± 0.078
7 | GGCCAGCAAUAUUACGUCUU | -0.247 ± 0.081 | -0.523 ± 0.082
8 | GGCCAGCAAUAUUACGUGGG | -4.31 ± 0.21 | -3.32 ± 0.26
9 | GGCCAGCAAUAUUACGUUGG | -3.91 ± 0.25 | -3.17 ± 0.25
10 | GGCCAGCAAUAUUACGUUUA | -2.69 ± 0.19 | -1.87 ± 0.16
11 | GGCGAGCAAUAUUACGAAUC | -1.03 ± 0.051 | -0.145 ± 0.067
12 | GGCGAGCAAUAUUACGAUAC | -2.02 ± 0.37 | -0.796 ± 0.35
13 | GGCGAGCAAUAUUACGAUCC | -0.772 ± 0.092 | -0.128 ± 0.12
14 | GGCGAGCAAUAUUACGAUGA | -2.08 ± 0.17 | -2.93 ± 0.33
15 | GGCGAGCAAUAUUACGCACA | -0.586 ± 0.082 | -0.225 ± 0.12
16 | GGCGAGCAAUAUUACGCAUC | -2.15 ± 0.15 | -1.05 ± 0.14
17 | GGCGAGCAAUAUUACGCAUU | -1.13 ± 0.11 | -0.998 ± 0.14
18 | GGCGAGCAAUAUUACGCCGG | -3.4 ± 0.35 | -0.739 ± 0.33
19 | GGCGAGCAAUAUUACGCCUG | -1.97 ± 0.43 | 
20 | GGCGAGCAAUAUUACGCGUA | -1.09 ± 0.17 | -0.484 ± 0.15
21 | GGCGAGCAAUAUUACGGAUA |  | -2.08 ± 0.37
22 | GGCGAGCAAUAUUACGGCAC | -1.36 ± 0.13 | -0.093 ± 0.14

Row | Sequence | self-splicing fitness (ln) (30 °C) | self-splicing fitness (ln) (37 °C)
23 | GGCGAGCAAUAUUACGGCGC | -2.51 ± 0.29 | -2.52 ± 0.37
24 | GGCGAGCAAUAUUACGGGAG | -3.99 ± 0.34 | -1.33 ± 0.23
25 | GGCGAGCAAUAUUACGGGCA | -0.695 ± 0.15 | -0.194 ± 0.15
26 | GGCGAGCAAUAUUACGGGUG | -2.31 ± 0.12 | -1.96 ± 0.14
27 | GGCGAGCAAUAUUACGGUGU | -2.02 ± 0.25 | -1.55 ± 0.17
28 | GGCGAGCAAUAUUACGUCGG | -3.78 ± 0.33 | -2.13 ± 0.28
29 | GGCGAGCAAUAUUACGUGCU | -3.19 ± 0.34 | 
30 | GGCGAGCAAUAUUACGUGUU | -2.5 ± 0.12 | -1.39 ± 0.14
31 | GGCUAGCAAUAUUACGAACG | -0.636 ± 0.066 | -0.168 ± 0.094
32 | GGCUAGCAAUAUUACGAAGU | -2.13 ± 0.26 | -1.56 ± 0.44
33 | GGCUAGCAAUAUUACGAAUC | 0.199 ± 0.18 | 0.239 ± 0.19
34 | GGCUAGCAAUAUUACGACAA | -0.713 ± 0.29 | -0.198 ± 0.33
35 | GGCUAGCAAUAUUACGACGA | -1.31 ± 0.15 | -1.08 ± 0.17
36 | GGCUAGCAAUAUUACGACUA | -0.758 ± 0.091 | -0.454 ± 0.089
37 | GGCUAGCAAUAUUACGACUU | -0.0915 ± 0.084 | -0.0421 ± 0.11
38 | GGCUAGCAAUAUUACGAGCU | -2.9 ± 0.47 | -1.65 ± 0.31
39 | GGCUAGCAAUAUUACGAGUU | -1.95 ± 0.11 | -0.414 ± 0.11
40 | GGCUAGCAAUAUUACGAUAC | -1.71 ± 0.16 | -0.0528 ± 0.14
41 | GGCUAGCAAUAUUACGCAAC | -1.61 ± 0.11 | -0.72 ± 0.12
42 | GGCUAGCAAUAUUACGCACA | -0.263 ± 0.12 | 0.1 ± 0.16
43 | GGCUAGCAAUAUUACGCCGG | -2.34 ± 0.21 | -2.27 ± 0.35

— the supplement of paper PMC7877785
